20 sequences from the DeepSol protein solubility set can be followed below.

The series in a line: soluble on expression in E. coli; label from the status in PepcDB or PDB records.
“MVKVYAPASSANMSVGFDVLGAAVTPVDGALLGDVVTVEAAETFSLNNLGRFADKLPSEPRENIVYQCWERFCQELGKQIPVAMTLEKNMPIGSGLGSSACSVVAALMAMNEHCGKPLNDTRLLALMGELEGRISGSIHYDNVAPCFLGGMQLMIEENDIISQQVPGFDEWLWVLAYPGIKVSTAEARAILPAQYRRQDCIAHGRHLAGFIHACYSRQPELAAKLMKDVIAEPYRERLLPGFRQARQAVAEIGAVASGISGSGPTLFALCDKPETAQRVADWLGKNYLQNQEGFVHICRLDTAGARVLEN”: the “soluble on expression in E. coli” value is given as “soluble”.

In the case of “MNAFFTRALKPGARPLDETPGAILCPADGAVSQLGPIEHGRIFQAKGHGFSAQELLGGDPAMAAPFMGGEFATIYLSPKDYHRVHMPLAGTLREMVYVPGRLFSVNQTTAENVPELFARNERVVCLFDTERGPMAVVLVGAMIVASIETVWAGLVTPPKRELKTFRYDEASRTPIHLEKGAELGRFKLGSTAIVLFGPEQVKWAESLGAGSAVRMGQQLAAPAQALEHHHHHH”, the “soluble on expression in E. coli” value is recorded as “not soluble”.

In the case of “MSLKWIDSHIHVDQYKDEEKSRLLKDVENSKEIQGLIAVSMNYQSSKEILSLAKRYSFVHPAVGFHPEQPIHKEECEKIYKLIEDHVEDIVAIGEVGLPYYLRKEDEHIAINSYISVLQRFVELASKYDLPIVLHAVYEDADVVCDLLEKHKVSRAHFHWFKGSETTMERMMRNGYYISITPDVLHKEKIRKIVSYYPLEYMMVETDGPWGFQEGVMTHPGMIREVLKEISVIKNVAVDKVAETIYENTIQFYLKGEGHHHHHH”, the “soluble on expression in E. coli” value is recorded as “soluble”.

Take “TLNIVITGAKGFVGKNLKADLTSTTDHHIFEVHRQTKEEELESALLKADFVVHLAGVNRPEHDKEFSLGNVSYLDHVLDILTRNTKKPAILLSSSIQATQDNPYGESKLQGEQLLREYAEEYGNTVYIYRWPNLFGKWCKPNYNSVIATFCYKIARNEEIQVNDRNVELTLNYVDDIVAEIKRAIEGTPTIENGVPTVPNVFKVTLGEIVDLLYKFKQSRLDRTLPKLDNLFEKDLYSTYLSYLPSTDFSYPLLMNVDDRGSFTEFIKTPDRGQVSVNISKPGITKGNHWHHTKNEKFLVVSGKGVIRFRHVNDDEIIEYYVSGDKLEVVDIPVGYTHNIENLGDTDMVTIMWVNEMFDPNQPDTYFLEV”: the “soluble on expression in E. coli” value was “soluble”.

Consider “SLYAISISERTLEKVNAIIESEIKPNAYLASGDLLVHTSRLFMDTPYQANTLVHHSDLPYALVVNFDGMDCFTYLDYVVALSQASDTPSFFSSLMNIRYKKSHIHFYDRKHFFSDWYALSPQIAIDITEKMSPDAITIPKQLNQKVEGGEYIQGLGVIPRMITYIPSDKITQSVLDNLQNGDLVGVYSPKIGLDVTHTGIIVKENNQILYRNASSLSKYNKVVDLPFMDYIRSKPGIVVLRVE”, for which the “soluble on expression in E. coli” value is recorded as “soluble”.

As for “MGSDKIHHHHHHMIVAVGKDEEKIKESLEEMKGLCKTLGVEVVEWLWQKRAKPDPATYLGKGKLQKLKEVVEFCEADLVVVDDEITPVQYKNMQSELNVDVLDRTQVILEIFARHATSEEGKLQVEMASLLYELPRLVGKGEELSRLGGGIGTRGPGEPLLEVLRRHIKNRIAQLRKRLKEIEQERNTQRKQRLEKKIPHVSIVGYTNAGKSTLLKVLTDSDVYVADKLFATLEPVTRRLKLKSGRVILVSDTVGFIRKLPHTIVSAFKATLEEIKYSDVLIHLVDASDPYLEEKMKASEKVLEEIGADKIPRILVFNKIDLCPRERIETLKWKYPEALFISAEKRIGLDQLLDRLEEVISQRDVQETLKVPLEKIGQIYALKDRLEILNEDYREGYALITLKTDRETLEMLKRKVAS”, the “soluble on expression in E. coli” value is listed as “not soluble”.

Consider “MGSDKIHHHHHHMNKRNLLIAIPALCSGYLHGQTQPASPNVIYILMDDLGYGDIGCFGQDKIETPHIDRLCSEGIKLTQHYSGSPVSAPARCVLMTGMHSGHAQIRFNNELAERGAVNNYDSVYVHKELEGQFPLQANTMTIGRMMQQAGYTTGCFGKWGLGYPGSEGTPNKQGFDRFYGYNCQRQSHTYYPPFLYNDEERVYLSNKVTDPHRSPLDKGADPNDPASYAKYTQKEYANDLIFDELMGFVDANKRKPFFLMWTTPLPHVSLQAPERWVQHYVKKFGDEKPYTGQAGYLPCRYPHATYAAMISYFDEQIGQLIEKLKAEHLYENTLIVFTSDNGPTFNGGSDSPWFNSGGLFNSAYGWGKCFLHEGGIRVPAIITWPGKIKPGTQSDHICAFQDVMPTLAELAGITCPPTDGISFLPTLLGKKGKQKEHTYLYWEYPDPRIGNKAIRMGKWKGIITDIRKGNTQMQLYNLETDIREEHDVAAQHPDIVKRFERLMKEARNGPDF”, for which the “soluble on expression in E. coli” value is given as “not soluble”.

With “TGALMASSPQDIKFQDLVVFILEKKMGTTRRALLMELARRKGFRVENELSDSVTHIVAENNSGSDVLEWLQAQKVQVSSQPELLDVSWLIECIGAGKPVEMTGKHQL”, the “soluble on expression in E. coli” value is reported as “soluble”.

“MSLLTVVQDQQSSNDDSGVGRSLLDEIVRDGARQMLAAALAAEVAAYIEQFAEHLDEHGRRLVVRNGYHHERDVLTAAGAVTVTAPRVNDRRVDAETGERQRFSSAILPAWSRKSPQMTEVLPLLYLHGLSSGDFSAALEQFLGTGAGLSASKITRLTAQWQDEAKAFADRDLSGTDFVYLWVDGIHLKVRLEQQKLCLLVMIGVRADGRKELVALTDGFRESTESWADLLRSCRRRGMTAPVLAVGDEALGFWKALREVFPDTREQRCWFHKQANVLAALPKSAHPGATAAMREIYNAEDIDKAQVAIKAFEVDYGAKYPKAVAKIVDDADVLLEFYRYPAEHWIHLRTTNPIESTFATVRLRTKVTKGPGSRAAGIAMAYKLIDAAQARWRAVNAPHLVALVRAGAVFHKGKLLEREGHHHHHH”: the “soluble on expression in E. coli” value is given as “not soluble”.

“VAARTGNDPATDVRSTILTAAETCFERFGITKTTMEDVARAADMSRATVYRYFSDRESLIIESVARRARKNMKPARAFIAKWPTIEERLVEGICNNVESGLRDPMVHLLVSPSEMTLANSLLTTSGKAVELTSELWEPILRDAQEAGDIRADVDLALLCEWISELEIMCISQLNGGTGSLERFREKLRAFLVPSLLPAGN”: the “soluble on expression in E. coli” value is “not soluble”.

For “MAKKKSVFTCQECGYQSPKYLGRCPNCSAWSSFVEEVEVQEVKNARVSLNGEKSRPTKLKDVSSINYSRTKTDMDEFNRVLGGGVVPGSLVLIGGDPGIGKSTLLLQVSTQLANKGTVLYVSGEESAEQIKLRSERLGDIDNEFYLYAETNMQSIRSEIEKIKPDFLIIDSIQTIMSPEVSSVQGSVSQVREVTAELMQLAKTNNIATFIVGHVTKEGTLAGPRMLEHMVDTVLYFEGERHHTFRILRAVKNRFGSTNEIGIFEMQSGGLVEVLNPSQVFLEERLDGATGSAIVVTMEGTRPILAEVQALVTPTVFGNAKRTTTGLDFNRVSLIMAVLEKRCGLLLQNQDAYLKSAGGVKLDEPAIDLAVAVAIASSYKEKPTNPQESFIGEIGLTGEIRRVTRIEQRINEASKLGFTKIYAPKNSLAGIEIPKGIDVIGVTTVSQVLKAVFST”, the “soluble on expression in E. coli” value is “not soluble”.

On to “MDMKKWLVATALIATTISGVTQAKEWKTVRFGIEGAYPPFSWTEADGSLKGFDVDMANALCAEMQVECKIVPQDWDGIIPSLLARKYDAIIAAMSITEERKKKVDFTGKYAQIPNKFIAKKGADLAFTKEGLKGVKIGVQRATTHDKYITDNYGDTVDIVRYGSFDEAYLDLANGRIAAVLGDASALEEGMLNKPGGDAYEFVGPSLTDPKWFGEGMGIAVRKQDKELTEKLDAAITALREKGIYQQIQAKYFKYDVYGE”, for which the “soluble on expression in E. coli” value is listed as “not soluble”.

With “GSGSEPAVCEMCGIVGTREAFFSKTKRFCSVSCSRSYSSNSKK”, the “soluble on expression in E. coli” value is on record as “soluble”.

Take “MGSDKIHHHHHHLGGGGIRPSHLLADEGGGPPYRPPAGRPVPSVPALMKLNAIEAGSAAADRVPLLILHGLLGSARNWGAVVKALGESRRVLALDLPNHGSSPWTEIMDYPFMARELASVIEHLGGRAAIMGHSMGGKAAMTLALSRPELVERLVVVDIAPVSYSHTFAPYIKAMRGVPLGEVSSRGEVEAALAGAIPDKGVRAFLMQNLEGGAGGYRWRPNLAVLGAHMDDILAFPHFPDDTAFQGPTLFVAGETSDYIRPAHEDVIAQFFPKAESVEIPGAGHWVHADNPSAFMSAIGSFL”: the “soluble on expression in E. coli” value is “not soluble”.

On to “MGSDKIHHHHHHMNRLKKLAWGELFMLGKQGKVRYVFTSSNTAGGYCSFMPELLAGLQKIFILKGPAGTGKSSFLRLLGQSMAEQGYEVEVWLSALNPLNPEGIYLPQMEAAVVNGSLPITIDPGYPAGRAEIINLEDYRDRKAAAEKGRDILELVQRVEKHHSKAYNILKSVIQTREELRQLSARHLDNSKFNQIFQELEARLAEEEVRERHYFANAVTADGIISYIEELSTPCRKRYIFKGPEGCGKSTMIAELARKAAEKGQFLEYYHSGLEPERLLMVIISSSQTALIDIGEMEINLKPCDLLVDLGKCLSDYDCSLLGMKNSQVYRNHEAMLLQVQDELENACLAVKKIKKINASFMDYDSIDKKRMEIEQELGSELSKCFCNGIESGL”, for which the “soluble on expression in E. coli” value was “not soluble”.

As to “MSYGLIIVLMIILGIGLWHTKKYHRAVVNQVAHVWITKNAFEHTALGMAIVSPDCRFLKVNRAYGEITGYTRPELLKMAVKELTHPEDQEKDTPYLQEVFAGNIHSFTTVKRYIHKNGSTIWVRSTISAVRTERGNLKYFVLEHHHHHH”, the “soluble on expression in E. coli” value was “not soluble”.

In the case of “MSLEGFIEDASVSLGLRNLYFNRDFRQPGAAQSKQEEWAQGFLLQAKSGYTQGTLGLGVELIGQLGLKLDSSPDRAGSGLLPRHADGRAADDYARLGVAPKLKLSNTELKLGELLPELPILLRNDGRLLPQTFQGGMLTSREIAGLTLHGGQMRSLSQRNSSDHQDLSVDGRGGAFSDRFDYLGAEYRFNAERSQVGLWQARLQDIYRQDYYSLSHKQSFGGWRLGASVGLFDTRDEGAAKLGELENRALTGFFSATRGGHSLGAGYQRMYGDDGMLYIAGTSTPLVNDIQVRNFTSAGERSWQLRYDYDFVALGIPGLTAMARYASGAHARTKAMDDGRAWERDVDVAYVIQSGPLKNLGLRWRNAMLRSNHAADVDENRLILSYSLPLLEGHHHHHH”, the “soluble on expression in E. coli” value was “soluble”.

With “MSLKTGTTLEKLAQVKTVAFDKTGTITQGKLVVDQVVPQGSQSADRLLQLAASAEQHSSHVLAQSLVAANRLPLLTATNVTETTAQGVVATINGQQVRAGKAAFVTSESITKPDQTAVYVAVDDVYQGYVSFNDRVRPEAATTMTRLRQAGVAHLMMISGDRQPIAEQIAQEVGLDQVHAECLPAGKIAVLDQLAANQRPVAMVGDGINDAPSLATADVGIAMGAHGATAASESADAVVLKDDLTRVSTARVIAQDTMRVARQSEGHHHHHH”, the “soluble on expression in E. coli” value is “soluble”.

In the case of “MGSDKIHHHHHHMAGAFDAGFWLPVLERLPDFRGDCIDMGFYGQPKRPKVPRPLILAHSMGLAWALAHIPRPWAGVFAVNAFPRFTRSPTFVEGVPPRLIERMLARFDETPAQVTADFLTRCGLDNPDTSAIDAAPLKDELAWLARCDERTALRMLPCPVLALAGTSDPIVPQGMSTASFAPDTLTLVDGAGHLLPLTHPDWVAAQIRLFAARLEA”, the “soluble on expression in E. coli” value was “not soluble”.

As for “MSLQIHALFPTAVATAQLRLDPLEMAAQLQTLLMLRGADEGNPNSGCAWTGDLNGVWQLHRHPDFSGMTDRVVEQAWAYLSAVGFDQAKLALHVQRCWPVLSDWDQMVGRHHHPNAHLSAVLYLSGSGSGEDGVLRIHAPSQPNELVPGSAAGHGGPIAAGHPLNQPHWDLAPQPGLLVLFPSRLDHSVLANGDPELLRCSISFDFVLTAPVDGDPPEYLAPHPSLWTPQPLEVNEGHHHHHH”, the “soluble on expression in E. coli” value is listed as “soluble”.
